Results on 26 sequences are retold here after the supplement of paper PMC9732359.

A short description of this series: protein stability index of a GFP-peptide fusion (yeast GPS) (PSI 1-4); higher = more stable; sorted into four equal gates, so the index is relative within each strain. The procedure, abridged:
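Tiled 17-residue yeast protein peptides were fused downstream of GFP in a plasmid that also expresses Cherry, and the pooled library was carried in yeast. Mid-log cultures in leucine-free medium were sorted into four equal gates by GFP/Cherry fluorescence ratio, and plasmids from each gate were PCR-amplified and Illumina-sequenced, with reads assigned to strains by barcodes. The protein stability index for each peptide was each gate's read frequency times its gate number, summed.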

± gives the uncertainty stated by the source.

In the case of LQNSERDVELSSDELKV [SMC4], the protein stability index came to 2.84 ± 0.11 (doa10∆), 3.12 ± 0.088 (pdr5∆), 2.73 ± 0.066 (san1∆) and 3.04 ± 0.12 (ubr1∆).

In turn, LQQQTPVTIWLFEQIGI [SME1] registered a protein stability index (doa10∆) of 1.66 ± 0.045, a protein stability index (pdr5∆) of 1.87 ± 0.041, a protein stability index (san1∆) of 1.64 ± 0.072 and a protein stability index (ubr1∆) of 2 ± 0.042.

LQRQQRKSKLNLDNLQK [POP4]: the protein stability index reads like this: (doa10∆) 2.72 ± 0.077; (pdr5∆) 3.22 ± 0.2; (san1∆) 3.09 ± 0.064; (ubr1∆) 2.92 ± 0.15.

As for LQSDKNFLDNCLFENDL [ITC1], the protein stability index is, setting by setting: (doa10∆) 2.13 ± 0.079; (pdr5∆) 3.03 ± 0.073; (san1∆) 2.92 ± 0.055; (ubr1∆) 3.01 ± 0.059.

Consider LQSLTSKGYVKTQFSWQ [RPS10A], for which the protein stability index by setting is: (doa10∆) 3.2 ± 0.1; (pdr5∆) 2.94 ± 0.096; (san1∆) 2.76 ± 0.086; (ubr1∆) 3.07 ± 0.065.

Turning to LRADKLYEKLKQEIMMS [ISW2], the protein stability index is 1.63 ± 0.14 (doa10∆), 1.38 ± 0.18 (pdr5∆), 1.78 ± 0.25 (san1∆) and 1.41 ± 0.15 (ubr1∆).

On to LREVVELPLLSPERFAT [RPT1], for which the protein stability index stood at 2.13 ± 0.084 (doa10∆), 2.54 ± 0.07 (pdr5∆), 2.47 ± 0.1 (san1∆) and 2.33 ± 0.11 (ubr1∆).

As to LRKLKKMNNKPERFMVF [RPC53], the protein stability index reads like this: (doa10∆) 3.19 ± 0.099; (pdr5∆) 3.35 ± 0.14; (san1∆) 3.03 ± 0.099; (ubr1∆) 3.18 ± 0.14.

As to LRKNKLGYARFILLDRL [SMC4], the protein stability index runs as follows: (doa10∆) 1.15 ± 0.042; (pdr5∆) 1.25 ± 0.048; (san1∆) 1.14 ± 0.14; (ubr1∆) 1.15 ± 0.055.

As for LRLRGGIIEPSLKALAS [RPL40A], the protein stability index reads like this: (doa10∆) 3.1 ± 0.046; (pdr5∆) 3.02 ± 0.048; (san1∆) 2.7 ± 0.048; (ubr1∆) 3.02 ± 0.045.

As for LRNLHMKRMVAQWERSK [SNF12], the protein stability index (doa10∆) is 2.88 ± 0.076, the protein stability index (pdr5∆) was 2.89 ± 0.1, the protein stability index (san1∆) was determined as 2.89 ± 0.067 and the protein stability index (ubr1∆) amounted to 2.88 ± 0.086.

In the case of LRPGQEISLKAHCILGI [RPC40], the protein stability index was 2.12 ± 0.14 (doa10∆), 2.49 ± 0.13 (pdr5∆), 2.14 ± 0.099 (san1∆) and 1.82 ± 0.12 (ubr1∆).

LRQKHEFLEDFDLVRNI [SMC2]: the protein stability index runs as follows: (doa10∆) 3.1 ± 0.11; (pdr5∆) 3.05 ± 0.098; (san1∆) 3.14 ± 0.063; (ubr1∆) 3.34 ± 0.099.

As to LRQQQQQQDQPEQSEQP [RPN10], the protein stability index is, setting by setting: (doa10∆) 3.21 ± 0.09; (pdr5∆) 3.28 ± 0.076; (san1∆) 2.74 ± 0.081; (ubr1∆) 3.17 ± 0.064.

Turning to LRQQYEIELKKLPKVYK [SWI1], the protein stability index was 2.04 ± 0.067 (doa10∆), 1.75 ± 0.066 (pdr5∆), 2.22 ± 0.12 (san1∆) and 2.75 ± 0.073 (ubr1∆).

In the case of LRRLEILVPDLYHLVIM [ECM29], the protein stability index stood at 1.59 ± 0.054 (doa10∆), 1.54 ± 0.036 (pdr5∆), 1.46 ± 0.065 (san1∆) and 1.61 ± 0.032 (ubr1∆).

Consider LSAADIVAQSEVEVSTR [RPO31], for which the protein stability index is, setting by setting: (doa10∆) 2.33 ± 0.09; (pdr5∆) 2.53 ± 0.11; (san1∆) 2.54 ± 0.094; (ubr1∆) 2.84 ± 0.068.

As for LSCVKNDTISEDILQGI [NUT1], the protein stability index was 2.69 ± 0.067 (doa10∆), 2.35 ± 0.073 (pdr5∆), 2.53 ± 0.11 (san1∆) and 3.17 ± 0.076 (ubr1∆).

In the case of LSEFGIKKMLHLVWMKG [YCS4], the protein stability index is 3.17 ± 0.17 (doa10∆), 3.47 ± 0.11 (pdr5∆), 2.31 ± 0.15 (san1∆) and 3.29 ± 0.17 (ubr1∆).

Consider LSESPVDFEKFETFLVD [SIN4], for which the protein stability index was found to be 3.03 ± 0.12 (doa10∆), 2.73 ± 0.21 (pdr5∆) and 2.76 ± 0.21 (ubr1∆).

Turning to LSFTPTTVIGIRGSDQA [RPN2], the protein stability index runs as follows: (doa10∆) 1.65 ± 0.089; (pdr5∆) 1.61 ± 0.073; (san1∆) 1.78 ± 0.15; (ubr1∆) 1.59 ± 0.062.

For LSGSISERIVDCIIRLP [FAS1], the protein stability index stood at 1.35 ± 0.092 (doa10∆), 1.16 ± 0.09 (pdr5∆), 1.23 ± 0.27 (san1∆) and 1.85 ± 0.046 (ubr1∆).

Regarding LSHENNVMLEKIKDNKE [RPT5], the protein stability index by setting is: (doa10∆) 2.49 ± 0.063; (pdr5∆) 2.9 ± 0.054; (san1∆) 2.46 ± 0.054; (ubr1∆) 2.71 ± 0.045.

LSHYIRQCFQDNCCDFK [MED1] displayed a protein stability index (doa10∆) of 2.78 ± 0.045, a protein stability index (pdr5∆) of 2.75 ± 0.052, a protein stability index (san1∆) of 2.94 ± 0.05 and a protein stability index (ubr1∆) of 2.83 ± 0.032.

With LSILKGDYSQATVLSRK [RPN5], the protein stability index runs as follows: (doa10∆) 3.08 ± 0.07; (pdr5∆) 3.02 ± 0.06; (san1∆) 3.03 ± 0.075; (ubr1∆) 2.72 ± 0.056.

Regarding LSKFFFFIFVFNFVLLG [COB], the protein stability index is 1.42 ± 0.13 (doa10∆), 1.19 ± 0.12 (pdr5∆), 1.09 ± 0.25 (san1∆) and 1.22 ± 0.15 (ubr1∆).
